Here are results for four sequences from the supplement of paper PMC5998384.

Series [1] deals with HeLa Kyoto. The experiment in a line: solubility in G1/S (NP-40 vs SDS abundance) (log2 ratio); higher = more soluble. The note with it: cell cycle stage: G1/S.
For series [2], the system named is HeLa Kyoto. The experiment in a line: melting temperature (median over replicates), in situ; higher = more thermally stable.
The subject of series [3] is HeLa Kyoto. The experiment in a line: solubility change mitosis vs G1/S (difference of NP-40 vs SDS log2 ratios) (log2 ratio difference); higher = more soluble in mitosis.
For series [4], the system named is HeLa Kyoto. The experiment in a line: thermal stability score vs G1/S (z-score of summed log2 fold changes over temperatures); higher = more thermally stable than in G1/S.
[5] abbreviates: cell cycle stage: early G1 (4.5 h after nocodazole release).
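For melting temperature (median over replicates), in situ in this document: HeLa Kyoto cells synchronized by double thymidine or nocodazole block, proteins quantified by TMT10plex mass spectrometry, three independent biological replicates.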
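For solubility change mitosis vs G1/S (difference of NP-40 vs SDS log2 ratios) in this document: synchronized HeLa Kyoto cells (double thymidine block for G1/S, nocodazole release for mitosis), protein amounts in NP-40 versus SDS lysates quantified by mass spectrometry, three biological replicates.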
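For solubility in G1/S (NP-40 vs SDS abundance) in this document: HeLa Kyoto cells arrested at G1/S by double thymidine block, proteins quantified by TMT10plex mass spectrometry in mild NP-40 versus SDS extracts, three biological replicates.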
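For thermal stability score vs G1/S (z-score of summed log2 fold changes over temperatures) in this document: synchronized HeLa Kyoto cells, proteins quantified by TMT10plex mass spectrometry, three biological replicates, mitosis taken 0.5 h after nocodazole release, G1/S directly after double thymidine block.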

Regarding “MAAPGSARRPLLLLLLLLLLGLMHCASAAMFMVKNGNGTACIMANFSAAFSVNYDTKSGPKNMTFDLPSDATVVLNRSSCGKENTSDPSLVIAFGRGHTLTLNFTRNATRYSVQLMSFVYNLSDTHLFPNASSKEIKTVESITDIRADIDKKYRCVSGTQVHMNNVTVTLHDATIQAYLSNSSFSRGETRCEQDRPSPTTAPPAPPSPSPSPVPKSPSVDKYNVSGTNGTCLLASMGLQLNLTYERKDNTTVTRLLNINPNKTSASGSCGAHLVTLELHSEGTTVLLFQFGMNASSSRFFLQGIQLNTILPDARDPAFKAANGSLRALQATVGNSYKCNAEEHVRVTKAFSVNIFKVWVQAFKVEGGQFGSVEECLLDENSMLIPIAVGGALAGLVLIVLIAYLVGRKRSHAGYQTI [LAMP1]”, the “solubility in G1/S (log2)” value in the series with HeLa Kyoto [1] is 0.0646. The melting temperature in the series on HeLa Kyoto [2] (cell cycle stage: G1/S) worked out at 59.9 °C; in the series on HeLa Kyoto [2] (cell cycle stage: mitosis), 61.1 °C. Further, in the series with HeLa Kyoto [3], the “solubility change mitosis (log2)” value amounted to 0.0596. In addition, the thermal stability score was -2.35 with HeLa Kyoto [4] (setting [5]) and -3.71 with HeLa Kyoto [4] (cell cycle stage: mitosis).
For “MAAIGVHLGCTSACVAVYKDGRAGVVANDAGDRVTPAVVAYSENEEIVGLAAKQSRIRNISNTVMKVKQILGRSSSDPQAQKYIAESKCLVIEKNGKLRYEIDTGEETKFVNPEDVARLIFSKMKETAHSVLGSDANDVVITVPFDFGEKQKNALGEAARAAGFNVLRLIHEPSAALLAYGIGQDSPTGKSNILVFKLGGTSLSLSVMEVNSGIYRVLSTNTDDNIGGAHFTETLAQYLASEFQRSFKHDVRGNARAMMKLTNSAEVAKHSLSTLGSANCFLDSLYEGQDFDCNVSRARFELLCSPLFNKCIEAIRGLLDQNGFTADDINKVVLCGGSSRIPKLQQLIKDLFPAVELLNSIPPDEVIPIGAAIEAGILIGKENLLVEDSLMIECSARDILVKGVDESGASRFTVLFPSGTPLPARRQHTLQAPGSISSVCLELYESDGKNSAKEETKFAQVVLQDLDKKENGLRDILAVLTMKRDGSLHVTCTDQETGKCEAISIEIAS [HSPA14]”, the “solubility in G1/S (log2)” value with HeLa Kyoto [1] amounted to 0.167. The melting temperature in the series with HeLa Kyoto [2] (cell cycle stage: G1/S) and in the series on HeLa Kyoto [2] (cell cycle stage: mitosis) was 48.4 °C in each case. Besides, the “solubility change mitosis (log2)” value in the series with HeLa Kyoto [3] was -0.0832. Moreover, the thermal stability score in the series with HeLa Kyoto [4] (setting [5]) was found to be 1.14; with HeLa Kyoto [4] (cell cycle stage: mitosis), 3.27.
In the case of “MSKGPGPGGSAASSAPPAATAQVLQAQPEKPQHYTYLKEFRTEQCPLFVQHKCTQHRPYTCFHWHFVNQRRRRSIRRRDGTFNYSPDVYCTKYDEATGLCPEGDECPFLHRTTGDTERRYHLRYYKTGICIHETDSKGNCTKNGLHCAFAHGPHDLRSPVYDIRELQAMEALQNGQTTVEGSIEGQSAGAASHAMIEKILSEEPRWQETAYVLGNYKTEPCKKPPRLCRQGYACPYYHNSKDRRRSPRKHKYRSSPCPNVKHGDEWGDPGKCENGDACQYCHTRTEQQFHPEIYKSTKCNDMQQSGSCPRGPFCAFAHVEQPPLSDDLQPSSAVSSPTQPGPVLYMPSAAGDSVPVSPSSPHAPDLSALLCRNSSLGSPSNLCGSPPGSIRKPPNLEGIVFPGESGLAPGSYKKAPGFEREDQVGAEYLKNFKCQAKLKPHSLEPRSQEQPLLQPKQDMLGILPAGSPLTSSISSSITSSLAATPPSPVGTSSVPGMNANALPFYPTSDTVESVIESALDDLDLNEFGVAALEKTFDNSTVPHPGSITIGGSLLQSSAPVNIPGSLGSSASFHSASPSPPVSLSSHFLQQPQGHLSQSENTFLGTSASHGSLGLNGMNSSIWEHFASGSFSPGTSPAFLSGPGAAELARLRQELDEANSTIKQWEESWKQAKQACDAWKKEAEEAGERASAAGAECELAREQRDALEVQVKKLQEELERLHAGPEPQALPAFSDLEALSLSTLYSLQKQLRAHLEQVDKAVFHMQSVKCLKCQEQKRAVLPCQHAALCELCAEGSECPICQPGRAHTLQS [UNK]”, the “solubility in G1/S (log2)” value in the series on HeLa Kyoto [1] was 0.0454. The melting temperature was determined as 51 °C with HeLa Kyoto [2] (cell cycle stage: G1/S) and 50.9 °C with HeLa Kyoto [2] (cell cycle stage: mitosis). The “solubility change mitosis (log2)” value with HeLa Kyoto [3] is -0.0731. Besides, the thermal stability score in the series on HeLa Kyoto [4] (setting [5]) turned out to be 0.349; in the series on HeLa Kyoto [4] (cell cycle stage: mitosis), 1.68.
Consider “MEPFTNDRLQLPRNMIENSMFEEEPDVVDLAKEPCLHPLEPDEVEYEPRGSRLLVRGLGEHEMEEDEEDYESSAKLLGMSFMNRSSGLRNSATGYRQSPDGACSVPSARTMVVCAFVIVVAVSVIMVIYLLPRCTFTKEGCHKKNQSIGLIQPFATNGKLFPWAQIRLPTAVVPLRYELSLHPNLTSMTFRGSVTISVQALQVTWNIILHSTGHNISRVTFMSAVSSQEKQAEILEYAYHGQIAIVAPEALLAGHNYTLKIEYSANISSSYYGFYGFSYTDESNEKKYFAATQFEPLAARSAFPCFDEPAFKATFIIKIIRDEQYTALSNMPKKSSVVLDDGLVQDEFSESVKMSTYLVAFIVGEMKNLSQDVNGTLVSIYAVPEKIGQVHYALETTVKLLEFFQNYFEIQYPLKKLDLVAIPDFEAGAMENWGLLTFREETLLYDSNTSSMADRKLVTKIIAHELAHQWFGNLVTMKWWNDLWLNEGFATFMEYFSLEKIFKELSSYEDFLDARFKTMKKDSLNSSHPISSSVQSSEQIEEMFDSLSYFKGSSLLLMLKTYLSEDVFQHAVVLYLHNHSYASIQSDDLWDSFNEVTNQTLDVKRMMKTWTLQKGFPLVTVQKKGKELFIQQERFFLNMKPEIQPSDTSYLWHIPLSYVTEGRNYSKYQSVSLLDKKSGVINLTEEVLWVKVNINMNGYYIVHYADDDWEALIHQLKINPYVLSDKDRANLINNIFELAGLGKVPLKRAFDLINYLGNENHTAPITEALFQTDLIYNLLEKLGYMDLASRLVTRVFKLLQNQIQQQTWTDEGTPSMRELRSALLEFACTHNLGNCSTTAMKLFDDWMASNGTQSLPTDVMTTVFKVGAKTDKGWSFLLGKYISIGSEAEKNKILEALASSEDVRKLYWLMKSSLNGDNFRTQKLSFIIRTVGRHFPGHLLAWDFVKENWNKLVQKFPLGSYTIQNIVAGSTYLFSTKTHLSEVQAFFENQSEATFRLRCVQEALEVIQLNIQWMEKNLKSLTWWL [LNPEP]”, for which the “solubility in G1/S (log2)” value in the series with HeLa Kyoto [1] was 0.198. Also, the melting temperature in the series on HeLa Kyoto [2] (cell cycle stage: G1/S) is 56.8 °C; with HeLa Kyoto [2] (cell cycle stage: mitosis) it was 57.1 °C. Besides, in the series on HeLa Kyoto [3], the “solubility change mitosis (log2)” value was -0.15. For the same sequence, the thermal stability score with HeLa Kyoto [4] (setting [5]) and in the series with HeLa Kyoto [4] (cell cycle stage: mitosis) was -1.44 each time.
